Test results reported in PMC3400614, “Cofactor Binding Protects Flavodoxin against Oxidative Stress” (PLoS ONE, 2012).

Key:
[1] = molecular target: T1, flavodoxin II (flavodoxin; apoflavodoxin) (Azotobacter vinelandii, UniProt P00324); experiment: native nano-electrospray mass spectrometry; assay type: binding; conditions: non-covalent, one FMN per monomer; 50 mM ammonium acetate, 0.1 mM EDTA, pH 6.8
T1 construct: gene nifF; full-length wild type, 179 residues, expressed in E. coli TG2 (pAV34); monomer; apoprotein made by TCA precipitation
T1 sequence (P00324 2-180): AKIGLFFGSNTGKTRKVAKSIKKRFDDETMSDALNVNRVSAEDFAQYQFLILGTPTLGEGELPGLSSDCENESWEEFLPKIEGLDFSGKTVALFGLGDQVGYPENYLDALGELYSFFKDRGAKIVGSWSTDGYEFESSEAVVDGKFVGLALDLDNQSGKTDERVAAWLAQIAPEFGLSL

[2] = molecular target: Apoflavodoxin (A. vinelandii flavodoxin II without FMN cofactor) (Azotobacter vinelandii) (UniProt P00324); experiment: LC-MS; reversed phase (acetonitrile, TFA) and electrospray MS; protein 5 µM after 30 min at room temperature with 10 or 100 mM H2O2, with or without 190-200 µM NBD-Cl; denaturing, shows covalent dimers only
[3] = molecular target: Apoflavodoxin (A. vinelandii flavodoxin II without FMN cofactor) (Azotobacter vinelandii) (UniProt P00324); experiment: SEC; data not shown; apoflavodoxin freshly prepared and during storage
[4] = molecular target: Apoflavodoxin (A. vinelandii flavodoxin II without FMN cofactor) (Azotobacter vinelandii) (UniProt P00324); experiment: SEC; Superdex 75 HR 10/30, 0.5 mL/min, 25°C; apoprotein (38 μM wild type, 79 μM C69A) fresh and after 22-24 h with 10 mM H2O2 at 4°C; DTT removed before
[5] = molecular target: Apoflavodoxin (A. vinelandii flavodoxin II without FMN cofactor) (Azotobacter vinelandii) (UniProt P00324); experiment: anion exchange chromatography; MonoQ HR5/5, 25 mM Tris-HCl pH 8.0, KCl gradient, 1.0 mL/min, 25°C; apoflavodoxin 50 μM left without DTT

Compound | native nano-electrospray mass spectrometry [1] | stoichiometry N [2] | stoichiometry N [3] | stoichiometry N [4] | stoichiometry N [5]
Cc1cc2nc3c(=O)[nH]c(=O)nc-3n(C[C@H](O)[C@H](O)[C@H](O)COP(=O)(O)O)c2cc1C [FMN] | flavodoxin indeed contains a single, non-covalently bound, FMN cofactor |  |  |  | 
Apoflavodoxin (A. vinelandii flavodoxin II without FMN cofactor) (from UniProt P00324 1-180) (natural protein) |  | 2 | 2 | 2 | 2
